Results on 1 molecule are retold here after article PMC5148605, “Prefabrication of a ribosomal protein subcomplex essential for eukaryotic ribosome formation” (eLife, 2016).

One test addresses T1, GST-Kap123 (S. cerevisiae, UniProt P40069 1-1113).
T1 construct: importin Kap123, S. cerevisiae; source: E. coli BL21, purified as previously described
T1 sequence (looked up): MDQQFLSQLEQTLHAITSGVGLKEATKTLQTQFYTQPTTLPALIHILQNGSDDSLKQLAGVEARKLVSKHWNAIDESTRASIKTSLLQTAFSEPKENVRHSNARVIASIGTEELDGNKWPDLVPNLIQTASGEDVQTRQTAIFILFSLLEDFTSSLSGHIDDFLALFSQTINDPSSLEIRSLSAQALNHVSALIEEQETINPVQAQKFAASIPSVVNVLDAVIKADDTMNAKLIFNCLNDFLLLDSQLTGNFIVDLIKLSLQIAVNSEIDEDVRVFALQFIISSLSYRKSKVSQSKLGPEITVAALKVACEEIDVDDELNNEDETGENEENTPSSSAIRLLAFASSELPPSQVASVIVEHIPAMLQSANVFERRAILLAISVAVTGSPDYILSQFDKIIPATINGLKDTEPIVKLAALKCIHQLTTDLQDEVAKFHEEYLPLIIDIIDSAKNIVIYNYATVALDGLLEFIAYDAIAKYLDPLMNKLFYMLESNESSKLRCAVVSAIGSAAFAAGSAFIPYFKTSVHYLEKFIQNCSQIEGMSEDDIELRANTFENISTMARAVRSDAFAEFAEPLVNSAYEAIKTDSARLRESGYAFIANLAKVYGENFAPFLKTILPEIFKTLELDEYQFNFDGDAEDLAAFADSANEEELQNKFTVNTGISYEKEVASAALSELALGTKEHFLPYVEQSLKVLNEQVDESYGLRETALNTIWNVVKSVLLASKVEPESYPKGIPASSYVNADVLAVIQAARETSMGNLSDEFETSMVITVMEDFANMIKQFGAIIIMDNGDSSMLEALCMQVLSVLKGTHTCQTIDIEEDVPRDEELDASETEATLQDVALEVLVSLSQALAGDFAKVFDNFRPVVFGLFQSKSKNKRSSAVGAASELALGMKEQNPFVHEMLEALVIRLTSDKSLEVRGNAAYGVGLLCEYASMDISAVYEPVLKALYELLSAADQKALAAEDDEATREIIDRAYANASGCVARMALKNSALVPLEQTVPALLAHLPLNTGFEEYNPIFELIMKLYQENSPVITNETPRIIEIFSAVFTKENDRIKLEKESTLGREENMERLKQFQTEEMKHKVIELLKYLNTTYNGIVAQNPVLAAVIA
As to the kind of experiment: pull-down; GST-tagged importins immobilised on Glutathione Sepharose, incubated with buffer, purified Fap7 or Fap7:uS11 for 1 hr, in presence of 100 µl competing E. coli lysate; Coomassie and Western. Conditions: both partners purified.

In another test the target is T2, GST-Msn5 (S. cerevisiae, UniProt P52918 1-1224).
T2 construct: Msn5, S. cerevisiae; source: E. coli BL21, purified as previously described
T2 sequence (looked up): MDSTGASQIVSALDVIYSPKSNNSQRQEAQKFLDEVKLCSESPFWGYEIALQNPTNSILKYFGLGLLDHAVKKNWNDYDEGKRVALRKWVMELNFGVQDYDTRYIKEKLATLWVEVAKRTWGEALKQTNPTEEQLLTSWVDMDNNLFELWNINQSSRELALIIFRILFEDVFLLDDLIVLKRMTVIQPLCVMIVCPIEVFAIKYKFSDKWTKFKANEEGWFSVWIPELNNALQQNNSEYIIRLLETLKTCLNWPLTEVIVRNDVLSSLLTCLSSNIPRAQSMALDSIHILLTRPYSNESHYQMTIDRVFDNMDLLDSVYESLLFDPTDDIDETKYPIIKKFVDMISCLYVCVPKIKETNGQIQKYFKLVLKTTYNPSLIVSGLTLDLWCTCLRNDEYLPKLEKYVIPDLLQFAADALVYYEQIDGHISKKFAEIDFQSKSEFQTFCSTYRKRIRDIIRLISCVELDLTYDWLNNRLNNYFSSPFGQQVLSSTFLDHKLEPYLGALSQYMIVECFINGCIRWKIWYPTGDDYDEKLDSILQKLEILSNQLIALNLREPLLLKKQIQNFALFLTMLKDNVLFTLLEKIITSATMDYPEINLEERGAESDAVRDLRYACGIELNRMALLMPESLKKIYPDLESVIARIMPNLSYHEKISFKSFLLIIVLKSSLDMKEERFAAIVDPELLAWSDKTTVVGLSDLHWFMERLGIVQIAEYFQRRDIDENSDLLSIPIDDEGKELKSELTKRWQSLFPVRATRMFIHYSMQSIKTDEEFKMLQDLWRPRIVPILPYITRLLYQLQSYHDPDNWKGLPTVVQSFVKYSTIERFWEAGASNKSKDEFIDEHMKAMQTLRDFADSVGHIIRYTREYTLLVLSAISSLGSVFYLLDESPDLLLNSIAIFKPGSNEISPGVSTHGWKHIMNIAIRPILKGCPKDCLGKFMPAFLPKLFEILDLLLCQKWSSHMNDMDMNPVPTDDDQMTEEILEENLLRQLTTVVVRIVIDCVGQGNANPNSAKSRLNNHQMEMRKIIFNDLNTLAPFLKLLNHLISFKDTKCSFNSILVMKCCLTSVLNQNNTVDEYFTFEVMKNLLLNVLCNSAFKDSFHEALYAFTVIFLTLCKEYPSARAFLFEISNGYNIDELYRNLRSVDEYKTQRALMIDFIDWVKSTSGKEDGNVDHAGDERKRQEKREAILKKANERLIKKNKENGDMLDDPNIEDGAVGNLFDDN
The description is as above. Conditions: both partners purified.

B1: Fap7 (enzyme, S. cerevisiae, UniProt Q12055 1-197, looked up)
chain: MEARRYGPNIIVTGTPGCGKSSTCEFLKNKLKDYKYYNISDFAKDNDCFEGYDEGRKSHIVDEDKLLDMLEPLLRQGNSIVDWHVNDVFPERLIDLVVVLRCDNSNLYSRLHARGYHDSKIEENLDAEIMGVVKQDAVESYEPHIVVELQSDTKEDMVSNVSRIVAWEKMWLEQHPDGVTNEYQGPRSDDEDDEDSE
notes: Fap7, conserved ATPase, S. cerevisiae (YDL166C); only the complex is printed as His6-Fap7:uS11; also called purified Fap7; Fap7 alone; source: E. coli BL21, purified
Consider B1, for which the binding result with GST-Kap123 and with GST-Msn5 was “binds” throughout.
